The values that follow come from article PMC8153620, “A Novel, Easy Assay Method for Human Cysteine Sulfinic Acid Decarboxylase” (Life, 2021).

The target of data set [1] is T1, human cysteine sulfinic acid decarboxylase (CSAD) (Homo sapiens, UniProt Q9Y600).
T1 construct: His6 and TEV site), tag kept (cleavage not mentioned); plasmid pNIC28-Bsa4; E. coli Rosetta(DE3); homodimer in crystal (PDB 2jis, solved by SGC)
T1 sequence (Q9Y600 1-493): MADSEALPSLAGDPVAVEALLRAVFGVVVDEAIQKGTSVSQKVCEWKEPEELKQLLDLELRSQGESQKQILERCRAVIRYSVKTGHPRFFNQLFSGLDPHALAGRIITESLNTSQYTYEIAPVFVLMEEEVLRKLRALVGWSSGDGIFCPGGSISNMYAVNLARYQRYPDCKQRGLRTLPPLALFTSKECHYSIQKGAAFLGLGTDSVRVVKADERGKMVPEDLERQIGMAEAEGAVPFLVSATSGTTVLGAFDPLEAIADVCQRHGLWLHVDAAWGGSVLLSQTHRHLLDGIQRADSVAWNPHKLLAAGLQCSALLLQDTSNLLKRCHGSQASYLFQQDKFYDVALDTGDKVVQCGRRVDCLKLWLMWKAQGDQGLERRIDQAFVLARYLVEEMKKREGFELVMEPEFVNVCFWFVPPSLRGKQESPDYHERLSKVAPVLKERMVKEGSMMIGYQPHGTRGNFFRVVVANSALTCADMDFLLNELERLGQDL
Put plainly: restoration of catalytic activity by equimolar PLP; absorption spectrum after dialysis. The format is biochemical. Particulars: covalent (Schiff base to Lys305 in PDB 2jis, not solved here); spectrum in 20 mM NaHEPES pH 7.5, 300 mM NaCl, 0.2 mM DTT, 5% glycerol.

Substrate in the data set “purified protein”: N[C@@H](CS(=O)O)C(=O)O
Put plainly: purified protein. Type of data set: biochemical, Homo sapiens. Particulars: 20 mM potassium phosphate pH 7.2, 0.2 mM DTT, 0.1 mM EDTA, 0.06 mM PLP, about 20 °C (room temperature), 0.33 μM CSAD, CSA 0.06–1 mM.

As for `Cc1ncc(COP(=O)(O)O)c(C=O)c1O` [PLP, pyridoxal-5′-phosphate], the “restoration of catalytic activity by equimolar PLP; absorption spectrum after di” value in data set [1] was “addition of exogenous PLP—in equimolar concentration with respect to the protein—restored the holo-form”.

B1: human cysteine sulfinic acid decarboxylase (CSAD) (Homo sapiens) (protein)
chain: T1 sequence (Q9Y600 1-493)
notes: His6 and TEV site), tag kept (cleavage not mentioned); plasmid pNIC28-Bsa4; E. coli Rosetta(DE3); homodimer in crystal (PDB 2jis, solved by SGC)
The term Km denotes the concentration of substrate that gives half-maximal velocity. In general, kcat refers to the maximal rate divided by the concentration of active sites. Consider B1, for which, in the data set “purified protein”, the Km was determined as 200 ± 20 µM and the kcat turned out to be 5.6 ± 0.2 s⁻¹.
